{"source": "the RNAGym collection of RNA variant scans (doi:10.1073/pnas.2313332121)", "parents": {"B1": {"name": "TPR 5TU (parent)", "chain": "GGAUCUUCUCGAUCUAACAAAAAAGACAAAUCUGCCACAAAGCUUGAGAGCAUCUUCGGAUGCAGAGGCGGCAGCCUUCGGUGGCGCGAUAGCGCCAACGUUCUCAACUAUGACACGCAAAACGCGUGCUCCGUUGAAUGGAGUUUAUCAUG"}}, "note": "This sample holds only a part of the variants without activity."}
{"variants_of": "B1", "experiment": "polymerase ribozyme fitness, log enrichment relative to wild type (log ratio); higher = more active; in vitro selection for triplet polymerase activity", "how_it_was_run": "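Mutant libraries for each subunit of a heterodimeric triplet polymerase ribozyme were made by PCR and then transcribed. Each library underwent one round of in vitro selection in triplicate: annealing with a biotinylated primer, the partner subunit and triplets, frozen incubation at −7 °C, gel excision of extended constructs, streptavidin-bead capture and RT-PCR. Input and output libraries were Illumina-sequenced, and only genotypes with ≥10 input reads and ≥1 read per output were kept. Fitness is the logarithm, base 2, of genotype enrichment over wild-type enrichment, computed from inverse-variance-weighted replicate averages.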"}
{"variant": "G48U U55G C118G C131U A137C U145A", "polymerase ribozyme fitness (log ratio)": "≤ -4.2"}
{"variant": "G11A A21U C87A", "polymerase ribozyme fitness (log ratio)": "≤ -4.2"}
{"variant": "G11A C32A C93U", "polymerase ribozyme fitness (log ratio)": "≤ -4.2"}
{"variant": "A26G U31A G48A A60C C76G A107C A119U", "polymerase ribozyme fitness (log ratio)": "≤ -4.2"}
{"variant": "A22C C27G C99U A106U G140U A147G", "polymerase ribozyme fitness (log ratio)": "≤ -4.2"}
{"variant": "C95U C116G G133U", "polymerase ribozyme fitness (log ratio)": "≤ -4.2"}
{"variant": "U55G U90A", "polymerase ribozyme fitness (log ratio)": "≤ -4.2"}
{"variant": "C43U C132U", "polymerase ribozyme fitness (log ratio)": "≤ -4.2"}
{"variant": "C27U G83A C125U U130G U135G", "polymerase ribozyme fitness (log ratio)": "≤ -4.2"}
{"variant": "A17U C51G G83A U134C", "polymerase ribozyme fitness (log ratio)": -3.2}
{"variant": "C69A U82G", "polymerase ribozyme fitness (log ratio)": -1.91}
{"variant": "U53A G136A", "polymerase ribozyme fitness (log ratio)": -0.321}
{"variant": "A47U G81C C85G G86U C95U A106C G143A", "polymerase ribozyme fitness (log ratio)": "≤ -4.2"}
{"variant": "A41C G86U C123U", "polymerase ribozyme fitness (log ratio)": -2.13}
{"variant": "A52C C76A", "polymerase ribozyme fitness (log ratio)": "≤ -4.2"}
{"variant": "C14G A16U A39G G124A", "polymerase ribozyme fitness (log ratio)": "≤ -4.2"}
{"variant": "A22G A23U U53G C57A G84U C114U C129U", "polymerase ribozyme fitness (log ratio)": "≤ -4.2"}
{"variant": "A29G A52C C57U C93U", "polymerase ribozyme fitness (log ratio)": "≤ -4.2"}
{"variant": "C76A A98U G136A U145A", "polymerase ribozyme fitness (log ratio)": 0.194}
{"variant": "A60U C87U U135C", "polymerase ribozyme fitness (log ratio)": -3.65}
{"variant": "A21U G48C G83A C118G U145A", "polymerase ribozyme fitness (log ratio)": -2.76}
{"variant": "C118U A120G G143C", "polymerase ribozyme fitness (log ratio)": -2.13}
{"variant": "G83U A89G C95U C103G", "polymerase ribozyme fitness (log ratio)": "≤ -4.2"}
{"variant": "C96U C123U G136U", "polymerase ribozyme fitness (log ratio)": -2.2}
{"variant": "G42C U53A C99U", "polymerase ribozyme fitness (log ratio)": "≤ -4.2"}
{"variant": "C116A U148C", "polymerase ribozyme fitness (log ratio)": -3.09}
{"variant": "A20U A47U G70C G80C C85G C93A C108U A122G U144G", "polymerase ribozyme fitness (log ratio)": "≤ -4.2"}
{"variant": "A3U U55A", "polymerase ribozyme fitness (log ratio)": -0.84}
{"variant": "A29G C35A U56C C69G G71U A91G A98U A138G", "polymerase ribozyme fitness (log ratio)": "≤ -4.2"}
{"variant": "C103G C123G G136U", "polymerase ribozyme fitness (log ratio)": -2.77}
{"variant": "C116A G140U", "polymerase ribozyme fitness (log ratio)": -4.02}
{"variant": "G59C G124A U151C", "polymerase ribozyme fitness (log ratio)": -3.78}
{"variant": "G48A C125U", "polymerase ribozyme fitness (log ratio)": -0.97}
{"variant": "A37U C72A C95U", "polymerase ribozyme fitness (log ratio)": "≤ -4.2"}
{"variant": "U6G C51A G83C", "polymerase ribozyme fitness (log ratio)": -2.97}
{"variant": "C85G A119G", "polymerase ribozyme fitness (log ratio)": -1.7}
{"variant": "G58C A60G G67A C69A G92U G112A G143C", "polymerase ribozyme fitness (log ratio)": "≤ -4.2"}
{"variant": "C14G C18U A22C A40C U53A C75A U77A G94C G117U A119G C149G", "polymerase ribozyme fitness (log ratio)": "≤ -4.2"}
{"variant": "A60C C85A G124C", "polymerase ribozyme fitness (log ratio)": -2.54}
{"variant": "A40U U56A", "polymerase ribozyme fitness (log ratio)": -0.0589}
{"variant": "A12C A30G C38A C51A U56G C85G C95U A106G U111A", "polymerase ribozyme fitness (log ratio)": "≤ -4.2"}
{"variant": "C93A G141A", "polymerase ribozyme fitness (log ratio)": -1.74}
{"variant": "U31C A41G A66C G68C C95G", "polymerase ribozyme fitness (log ratio)": "≤ -4.2"}
{"variant": "A40C U56G A64U C87U G143U", "polymerase ribozyme fitness (log ratio)": "≤ -4.2"}
{"variant": "U31A A106G", "polymerase ribozyme fitness (log ratio)": 0.863}
{"variant": "A89C G117U", "polymerase ribozyme fitness (log ratio)": -0.705}
{"variant": "A17G C79A G80C U109C", "polymerase ribozyme fitness (log ratio)": "≤ -4.2"}
{"variant": "G70C G83A C87U G117C", "polymerase ribozyme fitness (log ratio)": -3.9}
{"variant": "U109C C114U", "polymerase ribozyme fitness (log ratio)": -3.87}
{"variant": "C54U A89C C131U", "polymerase ribozyme fitness (log ratio)": 0.237}
{"variant": "A60C C76U A89G C114U G141U", "polymerase ribozyme fitness (log ratio)": "≤ -4.2"}
{"variant": "A52G G58C G68C", "polymerase ribozyme fitness (log ratio)": "≤ -4.2"}
{"variant": "A19G C85U", "polymerase ribozyme fitness (log ratio)": -1.3}
{"variant": "U45A A49G G83A C85U C99G U104C", "polymerase ribozyme fitness (log ratio)": "≤ -4.2"}
{"variant": "U4C G25U C79A C93G U111C", "polymerase ribozyme fitness (log ratio)": "≤ -4.2"}
{"variant": "A66G G92C C105U", "polymerase ribozyme fitness (log ratio)": -4.03}
{"variant": "U9A A12U C85U G88C U148G", "polymerase ribozyme fitness (log ratio)": "≤ -4.2"}
{"variant": "U9A A21G A41C G48U A49C U111G C131A", "polymerase ribozyme fitness (log ratio)": "≤ -4.2"}
{"variant": "A47C A89U A150G", "polymerase ribozyme fitness (log ratio)": -1.84}
{"variant": "G59U A66G A91G G100U U134A G143A A147G A150C", "polymerase ribozyme fitness (log ratio)": "≤ -4.2"}
{"variant": "C5G C76U", "polymerase ribozyme fitness (log ratio)": -0.335}
{"variant": "A37C C38U G71A U109G C123G", "polymerase ribozyme fitness (log ratio)": "≤ -4.2"}
{"variant": "U55G G83A A115C C123U G136U", "polymerase ribozyme fitness (log ratio)": -2.92}
{"variant": "A52G C93U", "polymerase ribozyme fitness (log ratio)": -1.74}
{"variant": "U56A C57A C85G", "polymerase ribozyme fitness (log ratio)": -0.79}
{"variant": "C5G C38G G68C U135A G141A", "polymerase ribozyme fitness (log ratio)": "≤ -4.2"}
{"variant": "A20U A29G G46C G50C A66U G83A", "polymerase ribozyme fitness (log ratio)": "≤ -4.2"}
{"variant": "G46A C85A C87U C99A", "polymerase ribozyme fitness (log ratio)": "≤ -4.2"}
{"variant": "A19U G42C G86U A110G C116A G117U", "polymerase ribozyme fitness (log ratio)": "≤ -4.2"}
{"variant": "A26C C85A G94C", "polymerase ribozyme fitness (log ratio)": -1.83}
{"variant": "A39C C105U G124A", "polymerase ribozyme fitness (log ratio)": -2.08}
{"variant": "C87U C116U C118A", "polymerase ribozyme fitness (log ratio)": -0.495}
{"variant": "G59C U77A C96G C105U G140A", "polymerase ribozyme fitness (log ratio)": "≤ -4.2"}
{"variant": "U53C C72A U139C A150G", "polymerase ribozyme fitness (log ratio)": "≤ -4.2"}
{"variant": "A39U U102C", "polymerase ribozyme fitness (log ratio)": -4.01}
{"variant": "U56C G74U C76U G84U C125G A138C", "polymerase ribozyme fitness (log ratio)": "≤ -4.2"}
{"variant": "C10G C57G G92C A113C G133A", "polymerase ribozyme fitness (log ratio)": "≤ -4.2"}
{"variant": "G68A C72A G80C G94A", "polymerase ribozyme fitness (log ratio)": "≤ -4.2"}
{"variant": "A113U C116U", "polymerase ribozyme fitness (log ratio)": -1.33}
{"variant": "A12G U144G", "polymerase ribozyme fitness (log ratio)": 0.592}
{"variant": "A22U U55A G94A A98U U135A", "polymerase ribozyme fitness (log ratio)": -2.29}
{"variant": "U7G C27A C93U A107G A150U", "polymerase ribozyme fitness (log ratio)": "≤ -4.2"}
{"variant": "C27U A47U A49C G117A", "polymerase ribozyme fitness (log ratio)": "≤ -4.2"}
{"variant": "G50A G70A C75A", "polymerase ribozyme fitness (log ratio)": "≤ -4.2"}
